Results from PMC9352680, “A comprehensive thermodynamic model for RNA binding by the Saccharomyces cerevisiae Pumilio protein PUF4”.

T1: PUF4 RNA-binding domain (Saccharomyces cerevisiae, UniProt P25339 537-888)
T1 sequence: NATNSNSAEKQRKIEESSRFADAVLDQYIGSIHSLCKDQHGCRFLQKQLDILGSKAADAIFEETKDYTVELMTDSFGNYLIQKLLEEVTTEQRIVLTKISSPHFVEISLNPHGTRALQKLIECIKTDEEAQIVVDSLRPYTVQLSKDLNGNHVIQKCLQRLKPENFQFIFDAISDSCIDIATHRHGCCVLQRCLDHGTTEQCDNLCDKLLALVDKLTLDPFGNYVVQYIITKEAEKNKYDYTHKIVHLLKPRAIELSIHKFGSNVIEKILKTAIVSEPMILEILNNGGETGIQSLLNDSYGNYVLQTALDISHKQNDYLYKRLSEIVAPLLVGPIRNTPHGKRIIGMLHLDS


biological target: T1, PUF4 RNA-binding domain; experiment: Mg; RNA-MaP; 20 mM Na-HEPES pH 7.4, 30 mM KOAc, 0.75 mM MgCl2, 0.1% Tween-20, 5% glycerol, 0.1 mg/mL BSA, 2 mM DTT; 25 C; 0.0125-409.6 nM protein; settings: tags: N-His6-TEV cleaved; C-SNAP kept, Cy3B-labelled; label: tethered on chip by stalled RNA polymerase

Binder	Kd [nM]
UCUCUUUGUAUUUUUUCUCUU (ssRNA) [Ib_S1_P4E.1_K4.1_C4.1_H4.1_A4.1_[A6T]_F4.1_[A9T]_T4.1]	20.9
Ic_S4_P5E.1_K5.1_C5.1_H5.1_A5.1_[T5C]_[T6A]_[A7T]_F5.1_[T8A]_[T9C]_[A10G]_T5.1 (ssRNA) RNA: UUUGACAACUGAUCGUUCUUUCUUGUACAUACGUUCUUUCUCGAUCAGUUGUCUUU	14.5
Ic_S4_P5E.1_K5.1_C5.1_H5.1_A5.1_[T5C]_[T6A]_[A7C]_F5.1_[T8A]_[A10G]_T5.1 (ssRNA) RNA: UUUGACAACUGAUCGUUCUUUCUUGUACACAUGUUCUUUCUCGAUCAGUUGUCUUU	130
Ic_S4_P5E.1_K5.1_C5.1_H5.1_A5.1_[T5C]_[T6G]_[A7C]_F5.1_[T8A]_[T9G]_[A10C]_T5.1 (ssRNA) RNA: UUUGACAACUGAUCGUUCUUUCUUGUACGCAGCUUCUUUCUCGAUCAGUUGUCUUU	882
Ic_S4_P5E.1_K5.1_C5.1_H5.1_A5.1_[T5G]_[T6C]_[A7T]_F5.1_[T9A]_[A10C]_T5.1 (ssRNA) RNA: UUUGACAACUGAUCGUUCUUUCUUGUAGCUUACUUCUUUCUCGAUCAGUUGUCUUU	24.4
Ic_S4_P5E.1_K5.1_C5.1_H5.1_A5.1_[T5A]_[A7C]_F5.1_[T8A]_[A10C]_T5.1 (ssRNA) RNA: UUUGACAACUGAUCGUUCUUUCUUGUAAUCAUCUUCUUUCUCGAUCAGUUGUCUUU	432
Ic_S4_P5E.1_K5.1_C5.1_H5.1_A5.1_[T6G]_[A7C]_F5.1_[T8C]_[T9A]_[A10T]_T5.1 (ssRNA) RNA: UUUGACAACUGAUCGUUCUUUCUUGUAUGCCAUUUCUUUCUCGAUCAGUUGUCUUU	56.4
Ic_S4_P5E.1_K5.1_C5.1_H5.1_A5.1_[T5A]_F5.1_[T8C]_[T9C]_[A10T]_T5.1 (ssRNA) RNA: UUUGACAACUGAUCGUUCUUUCUUGUAAUACCUUUCUUUCUCGAUCAGUUGUCUUU	379
Ic_S4_P5E.1_K5.1_C5.1_H5.1_A5.1_[A7G]_F5.1_[T8G]_[A10T]_T5.1 (ssRNA) RNA: UUUGACAACUGAUCGUUCUUUCUUGUAUUGGUUUUCUUUCUCGAUCAGUUGUCUUU	881
Ic_S4_P5E.1_K5.1_C5.1_H5.1_A5.1_[T6C]_[A7T]_F5.1_[T8C]_[A10G]_T5.1 (ssRNA) RNA: UUUGACAACUGAUCGUUCUUUCUUGUAUCUCUGUUCUUUCUCGAUCAGUUGUCUUU	19.1
Ic_S4_P5E.1_K5.1_C5.1_H5.1_A5.1_[T5A]_[T6A]_[A7C]_F5.1_[T8C]_[T9G]_[A10C]_T5.1 (ssRNA) RNA: UUUGACAACUGAUCGUUCUUUCUUGUAAACCGCUUCUUUCUCGAUCAGUUGUCUUU	703
Ic_S4_P5E.1_K5.1_C5.1_H5.1_A5.1_[T5C]_[T6C]_[A7T]_F5.1_[T9A]_[A10G]_T5.1 (ssRNA) RNA: UUUGACAACUGAUCGUUCUUUCUUGUACCUUAGUUCUUUCUCGAUCAGUUGUCUUU	3.61
Ic_S4_P5E.1_K5.1_C5.1_H5.1_A5.1_[T5C]_[A7T]_F5.1_[T8A]_[T9C]_[A10G]_T5.1 (ssRNA) RNA: UUUGACAACUGAUCGUUCUUUCUUGUACUUACGUUCUUUCUCGAUCAGUUGUCUUU	561
Ic_S4_P5E.1_K5.1_C5.1_H5.1_A5.1_[T6A]_[A7C]_F5.1_[T8C]_[T9C]_[A10G]_T5.1 (ssRNA) RNA: UUUGACAACUGAUCGUUCUUUCUUGUAUACCCGUUCUUUCUCGAUCAGUUGUCUUU	117
Ic_S4_P5E.1_K5.1_C5.1_H5.1_A5.1_[T5C]_[T6A]_[A7T]_F5.1_[T8C]_[T9C]_T5.1 (ssRNA) RNA: UUUGACAACUGAUCGUUCUUUCUUGUACAUCCAUUCUUUCUCGAUCAGUUGUCUUU	20.4
Ic_S4_P5E.1_K5.1_C5.1_H5.1_A5.1_[T5A]_[A7T]_F5.1_[T9G]_[A10C]_T5.1 (ssRNA) RNA: UUUGACAACUGAUCGUUCUUUCUUGUAAUUUGCUUCUUUCUCGAUCAGUUGUCUUU	46.7
Ic_S4_P5E.1_K5.1_C5.1_H5.1_A5.1_[T5A]_[T6A]_[A7T]_F5.1_[T8C]_[T9A]_[A10G]_T5.1 (ssRNA) RNA: UUUGACAACUGAUCGUUCUUUCUUGUAAAUCAGUUCUUUCUCGAUCAGUUGUCUUU	180
Ic_S4_P5E.1_K5.1_C5.1_H5.1_A5.1_[T6A]_F5.1_[T9G]_[A10G]_T5.1 (ssRNA) RNA: UUUGACAACUGAUCGUUCUUUCUUGUAUAAUGGUUCUUUCUCGAUCAGUUGUCUUU	16.6
Ic_S4_P5E.1_K5.1_C5.1_H5.1_A5.1_[T5A]_[A7T]_F5.1_[T8C]_[T9C]_[A10T]_T5.1 (ssRNA) RNA: UUUGACAACUGAUCGUUCUUUCUUGUAAUUCCUUUCUUUCUCGAUCAGUUGUCUUU	179
Ic_S4_P5E.1_K5.1_C5.1_H5.1_A5.1_[T5C]_[T6C]_F5.1_[T8C]_[T9A]_[A10T]_T5.1 (ssRNA) RNA: UUUGACAACUGAUCGUUCUUUCUUGUACCACAUUUCUUUCUCGAUCAGUUGUCUUU	158
Ic_S4_P5E.1_K5.1_C5.1_H5.1_A5.1_[T5C]_[A7G]_F5.1_[T8G]_T5.1 (ssRNA) RNA: UUUGACAACUGAUCGUUCUUUCUUGUACUGGUAUUCUUUCUCGAUCAGUUGUCUUU	34
Ic_S4_P5E.1_K5.1_C5.1_H5.1_A5.1_[T6G]_[A7T]_F5.1_[T8G]_[T9C]_[A10C]_T5.1 (ssRNA) RNA: UUUGACAACUGAUCGUUCUUUCUUGUAUGUGCCUUCUUUCUCGAUCAGUUGUCUUU	67.2
Ic_S4_P5E.1_K5.1_C5.1_H5.1_A5.1_[T5C]_[T6C]_[A7T]_F5.1_[T8A]_[T9G]_[A10C]_T5.1 (ssRNA) RNA: UUUGACAACUGAUCGUUCUUUCUUGUACCUAGCUUCUUUCUCGAUCAGUUGUCUUU	74.3

Binder	Kd [nM]
Ic_S4_P5E.1_K5.1_C5.1_H5.1_A5.1_[T5C]_[A7C]_F5.1_[T8A]_[T9C]_[A10G]_T5.1 (ssRNA) RNA: UUUGACAACUGAUCGUUCUUUCUUGUACUCACGUUCUUUCUCGAUCAGUUGUCUUU	> 2300
Ic_S4_P5E.1_K5.1_C5.1_H5.1_A5.1_[T5A]_[A7C]_F5.1_[T8A]_[T9G]_[A10C]_T5.1 (ssRNA) RNA: UUUGACAACUGAUCGUUCUUUCUUGUAAUCAGCUUCUUUCUCGAUCAGUUGUCUUU	1930
Ic_S4_P5E.1_K5.1_C5.1_H5.1_A5.1_[T5C]_[T6A]_[A7G]_F5.1_[T9C]_[A10C]_T5.1 (ssRNA) RNA: UUUGACAACUGAUCGUUCUUUCUUGUACAGUCCUUCUUUCUCGAUCAGUUGUCUUU	13.2
Ic_S4_P5E.1_K5.1_C5.1_H5.1_A5.1_[T5C]_[T6A]_[A7T]_F5.1_[T8A]_[T9G]_[A10T]_T5.1 (ssRNA) RNA: UUUGACAACUGAUCGUUCUUUCUUGUACAUAGUUUCUUUCUCGAUCAGUUGUCUUU	5
Ic_S4_P5E.1_K5.1_C5.1_H5.1_A5.1_[A7T]_F5.1_[T9C]_[A10T]_T5.1 (ssRNA) RNA: UUUGACAACUGAUCGUUCUUUCUUGUAUUUUCUUUCUUUCUCGAUCAGUUGUCUUU	15.6
Ic_S4_P5E.1_K5.1_C5.1_H5.1_A5.1_[T6A]_[A7T]_F5.1_[T9C]_[A10C]_T5.1 (ssRNA) RNA: UUUGACAACUGAUCGUUCUUUCUUGUAUAUUCCUUCUUUCUCGAUCAGUUGUCUUU	3.74
Ic_S4_P5E.1_K5.1_C5.1_H5.1_A5.1_[T5G]_[T6C]_F5.1_[T9A]_[A10C]_T5.1 (ssRNA) RNA: UUUGACAACUGAUCGUUCUUUCUUGUAGCAUACUUCUUUCUCGAUCAGUUGUCUUU	6.93
Ic_S4_P5E.1_K5.1_C5.1_H5.1_A5.1_[T6C]_[A7G]_F5.1_[T8A]_[A10C]_T5.1 (ssRNA) RNA: UUUGACAACUGAUCGUUCUUUCUUGUAUCGAUCUUCUUUCUCGAUCAGUUGUCUUU	1840
Ic_S4_P5E.1_K5.1_C5.1_H5.1_A5.1_[A7C]_F5.1_[T8G]_[A10T]_T5.1 (ssRNA) RNA: UUUGACAACUGAUCGUUCUUUCUUGUAUUCGUUUUCUUUCUCGAUCAGUUGUCUUU	59.5
Ic_S4_P5E.1_K5.1_C5.1_H5.1_A5.1_[T6C]_F5.1_[T9G]_[A10C]_T5.1 (ssRNA) RNA: UUUGACAACUGAUCGUUCUUUCUUGUAUCAUGCUUCUUUCUCGAUCAGUUGUCUUU	14.6
Ic_S4_P5E.1_K5.1_C5.1_H5.1_A5.1_[T6G]_[A7T]_F5.1_[T8C]_[T9C]_[A10C]_T5.1 (ssRNA) RNA: UUUGACAACUGAUCGUUCUUUCUUGUAUGUCCCUUCUUUCUCGAUCAGUUGUCUUU	66.1
Ic_S4_P5E.1_K5.1_C5.1_H5.1_A5.1_F5.1_[T8C]_[T9C]_[A10T]_T5.1 (ssRNA) RNA: UUUGACAACUGAUCGUUCUUUCUUGUAUUACCUUUCUUUCUCGAUCAGUUGUCUUU	160
Ic_S4_P5E.1_K5.1_C5.1_H5.1_A5.1_[T5A]_[A7C]_F5.1_[T8C]_[T9G]_[A10C]_T5.1 (ssRNA) RNA: UUUGACAACUGAUCGUUCUUUCUUGUAAUCCGCUUCUUUCUCGAUCAGUUGUCUUU	946
Ic_S4_P5E.1_K5.1_C5.1_H5.1_A5.1_[T5C]_[T6A]_F5.1_[T9C]_[A10T]_T5.1 (ssRNA) RNA: UUUGACAACUGAUCGUUCUUUCUUGUACAAUCUUUCUUUCUCGAUCAGUUGUCUUU	19.7
Ic_S4_P5E.1_K5.1_C5.1_H5.1_A5.1_[T6C]_[A7G]_F5.1_[T8C]_[T9C]_T5.1 (ssRNA) RNA: UUUGACAACUGAUCGUUCUUUCUUGUAUCGCCAUUCUUUCUCGAUCAGUUGUCUUU	850
Ic_S4_P5E.1_K5.1_C5.1_H5.1_A5.1_[T5A]_F5.1_[T8A]_[T9C]_[A10T]_T5.1 (ssRNA) RNA: UUUGACAACUGAUCGUUCUUUCUUGUAAUAACUUUCUUUCUCGAUCAGUUGUCUUU	561
Ic_S4_P5E.1_K5.1_C5.1_H5.1_A5.1_[T6C]_[A7T]_F5.1_[T8A]_T5.1 (ssRNA) RNA: UUUGACAACUGAUCGUUCUUUCUUGUAUCUAUAUUCUUUCUCGAUCAGUUGUCUUU	3.97
Ic_S4_P5E.1_K5.1_C5.1_H5.1_A5.1_[T5C]_[T6A]_F5.1_[T8A]_[T9C]_[A10T]_T5.1 (ssRNA) RNA: UUUGACAACUGAUCGUUCUUUCUUGUACAAACUUUCUUUCUCGAUCAGUUGUCUUU	80.6
Ic_S4_P5E.1_K5.1_C5.1_H5.1_A5.1_[T5G]_[T6C]_[A7G]_F5.1_[T9A]_T5.1 (ssRNA) RNA: UUUGACAACUGAUCGUUCUUUCUUGUAGCGUAAUUCUUUCUCGAUCAGUUGUCUUU	25.3
UCUCUUUGUAUCUUUUCUCUU (ssRNA) [Ib_S1_P4E.1_K4.1_C4.1_H4.1_A4.1_[A6C]_F4.1_[A9T]_T4.1]	20.9
UCUCUUUGUAUAGUGUCUCUU (ssRNA) [Ib_S1_P4E.1_K4.1_C4.1_H4.1_A4.1_[T7G]_F4.1_[A9G]_T4.1]	13
UCUCUUUGUAUGUUUUCUCUU (ssRNA) [Ic_S1_P4E.1_K4.1_C4.1_H4.1_A4.1_[A6G]_F4.1_[A9T]_T4.1]	40
